Measurements from patent US20260146099A1 (SELVAX, published 2026).
Where two headings read alike, the source gives them in different places.

T1: Recombinant canine CD40 extracellular domain with human IgG1 Fc domain tag (canine; human, UniProt Q7YRL5 21-194)
T1 construct: extracellular domain; Amine-coupled to a CM5 chip; also called caCD40-Fc; canine CD40-Fc; not shown: human IgG1 Fc domain tag
T1 sequence (looked up): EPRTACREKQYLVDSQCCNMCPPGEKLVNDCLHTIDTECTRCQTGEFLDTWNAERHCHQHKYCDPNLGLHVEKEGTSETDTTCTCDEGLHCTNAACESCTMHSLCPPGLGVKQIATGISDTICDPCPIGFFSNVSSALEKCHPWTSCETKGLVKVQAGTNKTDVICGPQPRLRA

T2: Recombinant canine CD40/TNFRSF5 protein (his tag) (canine, UniProt Q7YRL5 21-194)
T2 construct: Sino Biological 70105-D08H, expressed in a human cell line from Met1-Ala194; signal peptide Met1-Pro20 predicted cleaved; also called antigen; StP1a (canine CD40)
T2 sequence: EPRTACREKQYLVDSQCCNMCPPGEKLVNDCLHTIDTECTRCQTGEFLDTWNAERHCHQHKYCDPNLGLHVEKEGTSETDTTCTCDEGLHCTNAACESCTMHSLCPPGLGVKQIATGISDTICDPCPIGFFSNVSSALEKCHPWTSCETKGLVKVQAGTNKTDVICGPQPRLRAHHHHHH


How the values were obtained:
[1] = molecular target: Recombinant canine CD40 extracellular domain with human IgG1 Fc domain tag (canine; human) (UniProt Q7YRL5); assay: SPR (Biacore T200), single-cycle kinetics, canine CD40-Fc immobilised, antibody 2-32 nM as analyte, bivalent analyte model, first site, average n=5
[2] = molecular target: T1, Recombinant canine CD40 extracellular …; assay: as above
Experimental: (§1) Recombinant canine CD40 extracellular domain with human IgG1 Fc domain tag (canine CD40-Fc) was immobilised to the surface of a Series S Sensor Chip CM5 using an Amine Coupling Kit. The reference surface for analysis was prepared by immobilising human IgG1 isotype control antibody to the Series S Sensor Chip CM5 using the same method.
(§2) Kinetics/affinity analysis was carried out using the Biacore method for single-cycle kinetics. Running buffer was HBS-EP+ buffer, pH 7.4. Injection parameters were sample contact time: 180 seconds, dissociation: 600 seconds, flow rate: 30 μl/min. The concentrations of chimeric anti-CD40 antibodies used for kinetics analysis were 2 nM, 4 nM, 8 nM, 16 nM and 32 nM. Regeneration was with 50 mM NaOH for 30 seconds at 30 μl/min. Experimental data was fitted to a bivalent analyte binding model.

[3] = molecular target: T1, Recombinant canine CD40 extracellular …; assay: as above; remark: listed apart in the source
Experimental: as §1
as §2, with “purified anti-dog CD40” for “chimeric anti-CD40”

[4] = molecular target: T2, Recombinant canine CD40/TNFRSF5 protein …; assay: ELISA, absorbance on StP1a over absorbance on Irrelevant His Tag (RgN3a)
[5] = molecular target: T1, Recombinant canine CD40 extracellular …; assay: SPR (Biacore T200), single-cycle kinetics, canine CD40-Fc immobilised, antibody 2-32 nM as analyte, bivalent analyte model, first site, average n=6
Experimental: as §1, §2

[6] = molecular target: T2, Recombinant canine CD40/TNFRSF5 protein …; assay: ELISA, absorbance on StP1a over absorbance on Irrelevant His Tag (RgN3a); remark: listed apart in the source

| Kd [2] [nM] | koff [2] [s⁻¹] | kon [2] [M⁻¹ s⁻¹] | Molecule | further results |
| --- | --- | --- | --- | --- |
|  |  |  | anti-human CD40 antibody 21.4.1 | Kd [1]: 257 nM; koff [1]: 0.0143 s⁻¹; kon [1]: 58000 M⁻¹ s⁻¹ |
| 1.85 | 0.000659 | 370000 | SVX-2001A (antibody, also called chimeric dog IgGA, k antibody derived from StP1.RD1.G9.H5) heavy: QVQLQQSGPELVQPGASVKISCRASGYSFTSYYIHWVKQRPGQGLEWIGWIFPGSGNTKYNEKFRGKATLTADTSSSTAYTQVSSLTSEDSAVYFCARKSPYGNYAMDYWGQGTSVTVSSASTTAPSVFPLAPSCGSTSGSTVALACLVSGYFPEPVTVSWNSGSLTSGVHTFPSVLQSSGLHSLSSMVTVPSSRWPSETFTCNVVHPASNTKVDKPVFNECRCTDTPPCPVPEPLGGPSVLIFPPKPKDILRITRTPEVTCVVLDLGREDPEVQISWFVDGKEVHTAKTQSREQQFNGTYRVVSVLPIEHQDWLTGKEFKCRVNHIDLPSPIERTISKARGRAHKPSVYVLPPSPKELSSSDTVSITCLIKDFYPPDIDVEWQSNGQQEPERKHRMTPPQLDEDGSYFLYSKLSVDKSRWQQGDPFTCAVMHETLQNHYTDLSLSHSPGK light: DILLTQSPAILSVSPGERVSFSCRASQSIGTSIHWYQQRTNGSPRLLIKSASESISGIPSRFSGSGSGTDFTLSINSVESEDIADYYCQQSNSWPYTFGGGTKLEIKRNDAQPAVYLFQPSPDQLHTGSASVVCLLNSFYPKDINVKWKVDGVIQDTGIQESVTEQDKDSTYSLSSTLTMSSTEYLSHELYSCEITHKSLPSTLIKSFQRSECQRVD |  |
| 3.36 | 0.00172 | 519000 | SVX-2001C (antibody, also called chimeric dog IgGC, k antibody derived from StP1.RD1.G9.H5) heavy: QVQLQQSGPELVQPGASVKISCRASGYSFTSYYIHWVKQRPGQGLEWIGWIFPGSGNTKYNEKFRGKATLTADTSSSTAYTQVSSLTSEDSAVYFCARKSPYGNYAMDYWGQGTSVTVSSASTTAPSVFPLAPSCGSQSGSTVALACLVSGYIPEPVTVSWNSVSLTSGVHTFPSVLQSSGLYSLSSMVTVPSSRWPSETFTCNVAHPATNTKVDKPVAKECECKCNCNNCPCPGCGLLGGPSVFIFPPKPKDILVTARTPTVTCVVVDLDPENPEVQISWFVDSKQVQTANTQPREEQSNGTYRVVSVLPIGHQDWLSGKQFKCKVNNKALPSPIEEIISKTPGQAHQPNVYVLPPSRDEMSKNTVTLTCLVKDFFPPEIDVEWQSNGQQEPESKYRMTPPQLDEDGSYFLYSKLSVDKSRWQRGDTFICAVMHEALHNHYTQISLSHSPGK light: DILLTQSPAILSVSPGERVSFSCRASQSIGTSIHWYQQRTNGSPRLLIKSASESISGIPSRFSGSGSGTDFTLSINSVESEDIADYYCQQSNSWPYTFGGGTKLEIKRNDAQPAVYLFQPSPDQLHTGSASVVCLLNSFYPKDINVKWKVDGVIQDTGIQESVTEQDKDSTYSLSSTLTMSSTEYLSHELYSCEITHKSLPSTLIKSFQRSECQRVD |  |
| 2.6 | 0.000932 | 359000 | SVX-2001D (antibody, also called chimeric dog IgGD, k antibody derived from StP1.RD1.G9.H5) heavy: QVQLQQSGPELVQPGASVKISCRASGYSFTSYYIHWVKQRPGQGLEWIGWIFPGSGNTKYNEKFRGKATLTADTSSSTAYTQVSSLTSEDSAVYFCARKSPYGNYAMDYWGQGTSVTVSSASTTAPSVFPLAPSCGSTSGSTVALACLVSGYFPEPVTVSWNSGSLTSGVHTFPSVLQSSGLYSLSSTVTVPSSRWPSETFTCNVVHPASNTKVDKPVPKESTCKCISPCPVPESLGGPSVFIFPPKPKDILRITRTPEITCVVLDLGREDPEVQISWFVDGKEVHTAKTQPREQQFNSTYRVVSVLPIEHQDWLTGKEFKCRVNHIGLPSPIERTISKARGQAHQPSVYVLPPSPKELSSSDTVTLTCLIKDFFPPEIDVEWQSNGQPEPESKYHTTAPQLDEDGSYFLYSKLSVDKSRWQQGDTFTCAVMHEALQNHYTDLSLSHSPGK light: DILLTQSPAILSVSPGERVSFSCRASQSIGTSIHWYQQRTNGSPRLLIKSASESISGIPSRFSGSGSGTDFTLSINSVESEDIADYYCQQSNSWPYTFGGGTKLEIKRNDAQPAVYLFQPSPDQLHTGSASVVCLLNSFYPKDINVKWKVDGVIQDTGIQESVTEQDKDSTYSLSSTLTMSSTEYLSHELYSCEITHKSLPSTLIKSFQRSECQRVD |  |
| 3.36 | 0.00155 | 461000 | SVX-2001B (antibody, also called chimeric dog IgGB, k antibody derived from StP1.RD1.G9.H5) heavy: QVQLQQSGPELVQPGASVKISCRASGYSFTSYYIHWVKQRPGQGLEWIGWIFPGSGNTKYNEKFRGKATLTADTSSSTAYTQVSSLTSEDSAVYFCARKSPYGNYAMDYWGQGTSVTVSSASTTAPSVFPLAPSCGSTSGSTVALACLVSGYFPEPVTVSWNSGSLTSGVHTFPSVLQSSGLYSLSSMVTVPSSRWPSETFTCNVAHPASKTKVDKPVPKRENGRVPRPPDCPKCPAPEMLGGPSVFIFPPKPKDTLLIARTPEVTCVVVDLDPEDPEVQISWFVDGKQMQTAKTQPREEQFNGTYRVVSVLPIGHQDWLKGKQFTCKVNNKALPSPIERTISKARGQAHQPSVYVLPPSREELSKNTVSLTCLIKDFFPPDIDVEWQSNGQQEPESKYRTTPPQLDEDGSYFLYSKLSVDKSRWQRGDTFICAVMHEALHNHYTQESLSHSPGK light: DILLTQSPAILSVSPGERVSFSCRASQSIGTSIHWYQQRTNGSPRLLIKSASESISGIPSRFSGSGSGTDFTLSINSVESEDIADYYCQQSNSWPYTFGGGTKLEIKRNDAQPAVYLFQPSPDQLHTGSASVVCLLNSFYPKDINVKWKVDGVIQDTGIQESVTEQDKDSTYSLSSTLTMSSTEYLSHELYSCEITHKSLPSTLIKSFQRSECQRVD |  |
|  |  |  | StP1.RD1.G9.H5 (antibody, V domains shown, also called purified monoclonal antibody from hybridoma cell-line StP1.RD1.G9.H5) VH: QVQLQQSGPELVQPGASVKISCRASGYSFTSYYIHWVKQRPGQGLEWIGWIFPGSGNTKYNEKFRGKATLTADTSSSTAYTQVSSLTSEDSAVYFCARKSPYGNYAMDYWGQGTSVTVSS VL: DILLTQSPAILSVSPGERVSFSCRASQSIGTSIHWYQQRTNGSPRLLIKSASESISGIPSRFSGSGSGTDFTLSINSVESEDIADYYCQQSNSWPYTFGGGTKLEIKRADAAPTVS | Kd [3]: 5.24 nM; koff [3]: 0.00157 s⁻¹; kon [3]: 312000 M⁻¹ s⁻¹; positive:negative ratio [4]: 12.4; Kd [5]: 2.85 nM; koff [5]: 0.00106 s⁻¹; kon [5]: 372000 M⁻¹ s⁻¹ |
|  |  |  | StP1.RE2.D7b.B5 (antibody, V domains shown) VH: QVQLQQSGPELVKPGASVKISCKASGYSFTSYYIHWVKQSPGQGLEWIGWIFPGSGNTKYNEKFKGKATLTADTSSSTAYMQLSSLTSEDSAVYFCARRGTTRDALDYWGQGTSVTVSS VL: DILLTQSPAILSVSPGERVSFSCRASQSIGTSIHWFQQRTNGSPRVLIKYASQSISGIPSRFSGSGSGTDFTLSINSVESEDIADYYCQQSYTWPFTFGSGTKLAIKR | positive:negative ratio [6]: 10.8 |
